Key:
[1] = substrate: O=P(O)(O)OC1O[C@@H](CO)[C@@H](O)[C@@H](O)[C@@H]1O; assay: malachite green phosphate release assay; assay type: biochemical, Cicer arietinum; conditions: Mg2+ (optimum 5 mM; typical assay 3 mM MgCl2), 50 mM Tris-Cl pH 8, 37 °C
Description: (§1) malachite green phosphate release assay on CaIMP

[2] = substrate: O=P(O)(O)O[C@@H]1[C@H](O)[C@H](O)[C@@H](O)[C@H](O)[C@H]1O; assay: malachite green phosphate release assay; assay type: biochemical, Cicer arietinum; conditions: Mg2+ (optimum 5 mM; typical assay 3 mM MgCl2), 50 mM Tris-Cl pH 8, 37 °C
Description: as §1

B1: CaIMP (Cicer arietinum) (protein)
chain: MVDNDSHSEFLASAVEAAHKAGDVIRKAFYQTKHVQHKGTVDLVTETDKACEELIFNHLKELYPTHKFIGEETTAAFGTTELTDDPTWIVDPLDGTTNFVHGFPFVCVSIGLTIGKVPTVGVVYNPIINELFTAIRGQGAFLNGNPIKVSSQTELVSSLLATEAGTKRDKATLDASTDRINSLLYKVRSLRMSGSCALNLCGVACGRLDLFFETGFGGPWDVAGGAVIVREAGGVVFDPSGADFDITAQRVAASNPLLKDAFVDALRQTE
notes: full-length ORF (813 bp, 270 aa, ~30 kDa) in pET-23b NdeI/XhoI, E. coli BL21(DE3)
Work on B1 yielded a Km [1] of 16.7 µM, a Vmax [1] of 5.61 µmol/min/mg and a Km [2] of 25.9 µM. For the same protein, the Vmax [2] was 4.86 µmol/min/mg.

Reference: PMC3871819, “Differentially expressed myo-inositol monophosphatase gene (CaIMP) in chickpea (Cicer arietinum L.) encodes a lithium-sensitive phosphatase enzyme with broad substrate specificity and improves seed germination and seedling growth under abiotic stresses” (Journal of Experimental Botany, 2013)
